What all share (type): cell-based, human
One assay relates to THP-1 cells. Briefly: Transwell trans-endothelial migration of THP-1 cells. The following applies: lilrb4-KO THP-1, recombinant protein supplemented.
Assay [1] deals with T cells co-cultured with THP-1 cells. Put plainly: Tumor cell/T cell co-culture assay. The settings on record: T cells with irradiated THP-1 cells, protein supplemented. The method, then: Tumor cell/T cell co-culture assay. Human T cells isolated from health donor peripheral blood (PB009-1-0, Allcells) were co-cultured with irradiated (28 Gy) THP-1 cells in a U-bottom 96 well-plate for 3-7 days. Anti-CD3/CD28-coated beads (#11161D, Thermo Fisher), 50 U/ml recombinant human IL-2, and 5 ng/ml recombinant human IL-7 were supplemented to the medium. In some experiments, THP-1 cells were cultured in the upper chamber of transwell inserts (pore size is 3 μM, #09-761-80, Thermo Fisher) for the U-bottom 96 well-plate. For primary AML or B-ALL samples, patient CD3^+ T cells were collected and patient leukemia cells were sorted as CD33^+ and CD19^+ for AML and B-ALL, respectively.
CD8^+ T cells (5×10^4 per well) isolated from hPBMCs of a healthy donor (Interstate Blood Bank) were stimulated with anti-CD3/CD28/CD137-coated beads (11163D, Thermo Fisher) or cultured without stimulation for 2 days in a 96-well plate. Then, 5×10^3 human leukemia THP-1-Luc-GFP cells and 50 to 500 μg/ml anti-LILRB4 antibody C84 or control antibody mIgG were added. Cell numbers were determined on day 7 in triplicate wells. Anti-CD8 and anti-CD28 were used to detect human CTL cells; THP-1 cells were positive for GFP. […]

The next assay has as its system MV4-11 cells. Briefly: Transwell trans-endothelial migration of MV4-11 cells. The settings on record: lilrb4-KO MV4-11, recombinant protein supplemented. On the procedure:
Transwell assay. To test the cell plasticity, 1×10^5 MV4-11 cells were labelled with CFSE (Invitrogen) and treated with 100 μg/ml of anti-LILRB4 antibody C84 or control antibody mIgG and cultured in the upper chamber of well in a transwell plate (Corning). After 18 h, cells in lower chamber were counted. To test the ability of AML cells to migrate through endothelial cells, 3×10^5 human umbilical vein endothelial cells (HUVEC) cells were cultured on the transwell membrane. After 3 days, 1×10^5 CFSE-labelled MV4-11 cells were seeded in the upper chamber with 100 μg/ml of C84 or mIgG. After 18 h, cells in lower chamber were counted.

B1: arginase-1: recombinant Arginase-1 protein supplemented to culture (protein, UniProt P05089 1-322, looked up)
Arginase-1: MSAKSRTIGIIGAPFSKGQPRGGVEEGPTVLRKAGLLEKLKEQECDVKDYGDLPFADIPNDSPFQIVKNPRSVGKASEQLAGKVAEVKKNGRISLVLGGDHSLAIGSISGHARVHPDLGVIWVDAHTDINTPLTTTSGNLHGQPVSFLLKELKGKIPDVPGFSWVTPCISAKDIVYIGLRDVDPGEHYILKTLGIKYFSMTEVDRLGIGKVMEETLSYLLGRKKRPIHLSFDVDGLDPSFTPATGTPVVGGLTYREGLYITEEIYKTGLLSGLDIMEVNPSLGKTPEEVTRTVNTAVAITLACFGLAREGNHKPIDYLNPPK
As to B1, the “Migration ability of THP-1 cells across endothelial cells” value in the assay with THP-1 cells is listed as “increased”. Also, the “T cell proliferation in coculture” value in assay [1] is “decreased”. For the same molecule, the “Migration ability of MV4-11 cells across endothelial cells” value with MV4-11 cells is on record as “increased”.

These data come from patent US11906519B2, “Methods for identifying LILRB-blocking antibodies” (THE BOARD OF REGENTS OF THE UNIVERSITY OF TEXAS SYSTEM, priority 2016, dated 2024).
